# Reference: patent US20070282095A1 (published 2007)
# B1: fibrinogen (other)
# chain 1: ADSGEGDFLAEGGGVRGPRVVERHQSACKDSDWPFCSDEDWNYKCPSGCRMKGLIDEVNQDFTNRINKLKNSLFEYQKNNKDSHSLTTNIMEILRGDFSSANNRDNTYNRVSEDLRSRIEVLKRKVIEKVQHIQLLQKNVRAQLVDMKRLEVDIDIKIRSCRGSCSRALAREVDLKDYEDQQKQLEQVIAKDLLPSRDRQHLPLIKMKPVPDLVPGNFKSQLQKVPPEWKALTDMPQMRMELERPGGNEITRGGSTSYGTGSETESPRNPSSAGSWNSGSSGPGSTGNRNPGSSGTGGTATWKPGSSGPGSTGSWNSGSSGTGSTGNQNPGSPRPGSTGTWNPGSSERGSAGHWTSESSVSGSTGQWHSESGSFRPDSPGSGNARPNNPDWGTFEEVSGNVSPGTRREYHTEKLVTSKGDKELRTGKEKVTSGSTTTTRRSCSKTVTKTVIGPDGHKEVTKEVVTSEDGSDCPEAMDLGTLSGIGTLDGFRHRHPDEAAFFDTASTGKTFPGFFSPMLGEFVSETESRGSESGIFTNTKESSSHHPGIAEFPSRGKSSSYSKQFTSSTSYNRGDSTFESKSYKMADEAGSEADHEGTHSTKRGHAKSRPV
# chain 2: QGVNDNEEGFFSARGHRPLDKKREEAPSLRPAPPPISGGGYRARPAKAAATQKKVERKAPDAGGCLHADPDLGVLCPTGCQLQEALLQQERPIRNSVDELNNNVEAVSQTSSSSFQYMYLLKDLWQKRQKQVKDNENVVNEYSSELEKHQLYIDETVNSNIPTNLRVLRSILENLRSKIQKLESDVSAQMEYCRTPCTVSCNIPVVSGKECEEIIRKGGETSEMYLIQPDSSVKPYRVYCDMNTENGGWTVIQNRQDGSVDFGRKWDPYKQGFGNVATNTDGKNYCGLPGEYWLGNDKISQLTRMGPTELLIEMEDWKGDKVKAHYGGFTVQNEANKYQISVNKYRGTAGNALMDGASQLMGENRTMTIHNGMFFSTYDRDNDGWLTSDPRKQCSKEDGGGWWYNRCHAANPNGRYYWGGQYTWDMAKHGTDDGVVWMNWKGSWYSMRKMSMKIRPFFPQQ
# chain 3: YVATRDNCCILDERFGSYCPTTCGIADFLSTYQTKVDKDLQSLEDILHQVENKTSEVKQLIKAIQLTYNPDESSKPNMIDAATLKSRKMLEEIMKYEASILTHDSSIRYLQEIYNSNNQKIVNLKEKVAQLEAQCQEPCKDTVQIHDITGKDCQDIANKGAKQSGLYFIKPLKANQQFLVYCEIDGSGNGWTVFQKRLDGSVDFKKNWIQYKEGFGHLSPTGTTEFWLGNEKIHLISTQSAIPYALRVELEDWNGRTSTADYAMFKVGPEADKYRLTYAYFAGGDAGDAFDGFDFGDDPSDKFFTSHNGMQFSTWDNDNDKFEGNCAEQDGSGWWMNKCHAGHLNGVYYQGGTYSKASTPNGYDNGIIWATWKTRWYSMKKTTMKIIPFNRLTIGEGQQHHLGGAKQAGDV
# notes: also called Fbgn
# Experiments:
# [1] = target: 203A205G thrombin (glycine at position 203 in B chain substituted by alanine, serine at position 205 … (human, UniProt P00734 315-363; P00734 364-622); test: IAsys biosensor, FAST FIT program; derivative immobilized
# Description: (§1) Subsequently, 0.2 ml of 1 M ethanol amine (pH 8) was added thereto to perform a blocking treatment.
# [2] = target: 77E203A205G thrombin (lysine 77 to glutamic acid, glycine 203 to alanine, serine 205 to glycine in B chain) (human, UniProt P00734 315-363; P00734 364-622); test: as above
# Description: as §1
binder,measurement,setting,value
B1,Kd,[1],10.8 nM
same,Kd,[2],190 nM
